Measurements as given in patent US20230090114A1, “METHODS FOR PROMOTING WEIGHT LOSS” (89BIO LTD., priority 2020, published 2023).

Tests used:
[1] = Semi-fasted blood glucose (4 hours of fasting); assay type: in vivo, CD-1 mice
[2] = Diet-induced NASH model in mice; assay type: in vivo; details: 0.3 mg/kg, 3 times/week
[3] = Food intake and meal pattern (daily and METABOpack sessions); assay type: in vivo, CD-1 mice
Description: During the METABOpack™ sessions, animals were housed singly in the Physiocage System (Panlab/Harvard apparatus), which was composed of: • 8 physiocages (LE1301) • 8 Air tight lids for mouse (LE1303) • 8 grid floors for mouse (LE1317) • 8 Feeding bottles for mouse (LE1306) • 2 Air supply and switching units for up to 4 home cages each (LE4004FL) • 1 O2/CO2 analyzer (LE405) • 1 acquisition software suite, METABOLISM (V3.0).
From T1 to T28, vehicle and 89BIO100 (at the 3 different doses) were administrated by subcutaneous (SC) injection three times a week, while the treatment with liraglutide was administrated by subcutaneous route, twice a day, every day. It was important to notice that the first dosing was done just before the […] (at 9:00 AM) and the second dosing was done 8 hours after the first one (at 5:00 PM). Throughout the treatment period, FI and BW were daily measured.
In the present project, a METABOpack™ session was consisted of a 12-hour period of acclimation followed by a 48-hour period of recording of the respiratory exchanges, FI, water intake (WI) and locomotor activity of each animal.
Following this acclimation period, the parameters cited above were automatically and simultaneously recorded for 48 hours, except for body weight that was measured manually every day.
The METABOpack™ sessions were conducted at the start (T1-2), the middle (T14-15) and the end (T26-27) of the treatment period.
Meal pattern analysis was performed on high-resolution recordings of food intake obtained during the METABOpack™ sessions. The Physiocage system allowed recording food intake with an accuracy of 1 measure per second and a precision of 0.02 g. The physiocages were equipped with a system allowing to precisely collect the spillage of the animals, by the mean of a platform located under the food dispenser. This platform and the spillages it contains, were permanently weighted by the system and the values added to the total weight of the food dispenser. With this system, the progressive decrease in the food dispenser net weight only reflected the food consumption of the animals. The analysis was performed by plotting data every minute. Each weight variation of the feeding container (transition from one stable value to another) was considered as a “bout”, with each bout separated from each other bout by an “inter-bout interval”. A meal consisted of at least one bout, with each meal separated from each other meal by a “post-meal interval”. For the purpose of this study, a meal was defined as any feeding episode causing a change in food weight of 0.02 g and separated by at least 5 min from any subsequent episode. Based on this criterion, the following parameters were calculated for each experimental group: […]

[4] = T1, WD and NP, three doses, vs Liraglutide
[5] = T2, WD, three doses, vs Liraglutide
[6] = T2, WD, three doses, vs vehicle
[7] = first meal on T14, 3 mg/kg, vs 1 mg/kg
[8] = first meal on T14, 3 mg/kg, vs vehicle

B1: Mutant FGF21-GalNAc-SA-PEG-20 kDa (conjugate)
chain: MHPIPDSSPLLQFGGQVRQRYLYTDDAQQTEAHLEIREDGTVGGAADQSPESLLQLKALKPGVIQILGVKTSRFLCQRPDGALYGSLHFDPEACSFRELLLEDGYNVYQSEAHGLPLHLPGNKSPHRDPAPRGPARFLPLPGLPPALPEPPGILAPQPPDVGSSDPLSMVGPTQGASPSYAS
- blood glucose levels ([1]; T3 and T16, between 89BIO-treated groups): no significant difference
- blood glucose levels ([1]; T3 and T16, whatever the dose, vs Liraglutide): higher blood glucose levels
- blood glucose levels ([1]; T3 and T16, whatever the dose, vs vehicle): did not alter
- blood glucose levels ([1]; T28, 3 mg/kg, vs 0.3 and 1 mg/kg): higher blood glucose levels
- blood glucose levels ([1]; T28, 3 mg/kg, vs vehicle): significant increase in blood glucose levels
- blood glucose levels ([1]; T29 (so in the source), 0.3 and 3 mg/kg, vs Liraglutide): increased
- hypoglycemic action ([1]; wild-type CD-1 mice, in contrast to Liraglutide (summary)): did not have a hypoglycemic action
- efficacy in Diet-induced NASH model [2]: effective
- mean meal size ([3]; BIO89-100-treated mice): no change
- mean meal number ([3]; BIO89-100-treated mice, related to increased FC): increase in mean meal number
- cumulative food intake ([3]; T1, 0.3 mg/kg, vs vehicle, at 5 h, 6 h, 15-24 h): increased
- cumulative food intake ([3]; T1, 1 mg/kg, vs vehicle, at 1 h, 3 h, 18-24 h): increased
- cumulative food intake ([3]; T1, 3 mg/kg, vs vehicle, 10-12 h and 14-17 h): increased
- mean meal size ([3]; T1, DP, 0.3 mg/kg, vs Liraglutide): increased
- mean meal size ([3]; T1, DP, 3 mg/kg, vs 0.3 and 1 mg/kg): decreased
- mean meal size ([3]; T1, DP, 3 mg/kg, vs vehicle): reduced
- mean food intake ([3]; T1, DP, between groups): no significant difference
- mean food intake ([3]; T1, NP and WD, between the three 89BIO-100 groups): No significant difference
- mean food intake ([3]; T1, NP and WD, whatever the dose, vs Liraglutide): increase in mean food intake
- mean food intake ([3]; T1, NP, 3 mg/kg, vs vehicle): higher
- mean meal number [3, 4]: increased
- mean satiety ratio [3, 4]: decreased
- mean food intake ([3]; T1, WD, 0.3 and 1 mg/kg, vs vehicle): increased
- cumulative food intake ([3]; T1, between the three 89BIO-100 groups): no significant difference
- cumulative food intake ([3]; T1, three doses, vs Liraglutide, 5-24 h): increase in cumulative food intake
- cumulative food intake ([3]; T2, 0.3 mg/kg, vs Liraglutide, at 5 h, 6 h, 10-24 h): increased
- cumulative food intake ([3]; T2, 1 mg/kg, vs Liraglutide, 4-24 h): increased
- cumulative food intake ([3]; T2, 3 mg/kg, vs 0.3 mg/kg, at 1 h and 2 h only): slightly increased
- cumulative food intake ([3]; T2, 3 mg/kg, vs Liraglutide, over 24 h except at 4 h): increased
- cumulative food intake ([3]; T2, 3 mg/kg, vs vehicle, over 24 h except at 4 h): increased
- cumulative food intake ([3]; T2, 0.3 and 1 mg/kg, vs vehicle, 13-24 h): increase in cumulative food intake
- cumulative food intake ([3]; T2, 1 vs 3 mg/kg and 0.3 vs 1 mg/kg): no significant difference
- mean food intake ([3]; T2, DP, between groups): no significant difference
- mean food intake ([3]; T2, NP and WD, between the three 89BIO-100 groups): No significant difference
- mean food intake ([3]; T2, NP and WD, whatever the dose, vs Liraglutide): increase in mean food intake
- mean food intake ([3]; T2, NP, 3 mg/kg, vs vehicle): higher
- mean meal number ([3]; T2, WD, 0.3 and 3 mg/kg, vs vehicle): increased
- mean meal number [3, 5]: increased
- mean post-meal interval [3, 5]: decreased
- satiety ratio [3, 5]: decreased
- mean food intake [3, 6]: increased
- mean post-meal interval [3, 6]: shorter
- mean food intake ([3]; T15, WD only, whatever the dose, vs Liraglutide): increased
- mean food intake ([3]; T15, WD only, whatever the dose, vs vehicle): increased
- mean meal duration ([3]; T27, 3 mg/kg, vs vehicle, 0.3 and 1 mg/kg groups): significant increase in mean meal duration
- mean post-meal interval ([3]; first meal on T14, 0.3 mg/kg, vs vehicle): reduction in mean post-meal interval
- mean satiety ratio ([3]; first meal on T14, 1 mg/kg, vs 0.3 mg/kg): higher
- mean post-meal interval ([3]; first meal on T14, 1 mg/kg, vs Liraglutide): increase in mean post-meal interval
- mean post-meal interval [3, 7]: reduction
- mean satiety ratio [3, 7]: reduction
- mean post-meal interval [3, 8]: decrease
- mean satiety ratio [3, 8]: decrease
- mean post-meal interval ([3]; first meal on T15, 1 mg/kg, vs Liraglutide): increase in mean post-meal interval
- mean post-meal interval ([3]; first meal on T15, 3 mg/kg, vs 1 mg/kg): lower
- mean post-meal interval ([3]; first meal on T15, 3 mg/kg, vs vehicle): decrease in mean post-meal interval
- mean first meal latency ([3]; first meal on T15, three doses, vs vehicle): reduced
- mean first meal latency ([3]; first meal on T26, 3 mg/kg, vs Liraglutide): increase in mean first meal latency
- mean first meal latency ([3]; first meal on T26, 0.3 and 1 mg/kg, vs vehicle): increase in mean first meal latency
- increase in FC ([3]; naive CD-1 mice, 0.3-3.0 mg/kg SC 3qW x 4 weeks, up to): up to +94%
- food intake ([3]; summary, significantly increased on T1, T2 and T15): increased
